# Reference: article PMC9170038, “Crowdsourced RNA design discovers diverse, reversible, efficient, self-contained molecular switches”
# B1: Eterna 5811984 (Exclusion 6) (ssRNA)
# RNA: CUUAGUAUCUAGGAUAUCUAGUACAUAGUAUCUAGAGAAGGAGAUACAUGAGGAUCACCCAUGUUCUGUGUUCU
# B2: Eterna 6082084 (Exclusion 3) (ssRNA)
# RNA: AACACGUGAGGAUAUACAUGAGGAUCACCCAUGUUGGUACAAUCCUGUCCGACUAUCCGUAGAAGGCAUUGACU
# B3: Eterna 7643338 (Exclusion - Arginine B) (ssRNA)
# RNA: UUAUAUUAUCGAAGGAGCGUCACAUGAGGAUCACCCAUGUACAUGAGGAUCACCCAUGUGUGGCAGGUAGGUCGCGAUAUAUAAC
# B4: Eterna 14907 (Exclusion 2) (ssRNA)
# RNA: GUGUAGUUAGGAUAUGCUGGAAUCUAGCGAAGCUAGGUUCCACAUGAGGAUCACCCAUGUAGAAGGGACUACAC
# B5: Eterna 12517 (Exclusion 2) (ssRNA)
# RNA: AAUGGCUGAGGAUAUACACUCACGUCUAAAAGGUUCAAAUGACAUGAGGAUCACCCAUGUAGAAGGCAGCCCGA
# B6: Eterna 15907 (Sensor v3, turn-off variant 2) (ssRNA)
# RNA: AGUAACCGUCACGAAAGUGAUGGUUACGCAAGUAAAUGUACAUGAGGAUCACCCAUGUCCUCAUUUGCUCGUCUUAU
# B7: Eterna 6148811 (Same State NG 2) (ssRNA)
# RNA: UGAAUCAAUACAGGAUAUGGUGACGCACAUGAGGAUCACCCAUGUCCGCAGCGUGCUCAGCACGCCCAGAAGGGUAUUGAUCCG
# B8: Eterna 7699730 (Exclusion - Theophylline A) (ssRNA)
# RNA: AGAAACUUGUAUGUCGGCCCUGCGCGCGAUACCAGCCAAAUGGAUGGCCCUUGGCAGCGCAGCGAGUGAUGUUCGCCCGGCUGAC
# B9: Eterna 1142 (Exclusion - Theophylline A) (ssRNA)
# RNA: UGCAUCAGUGCCUUUGAUCUAUUCCUGGAUACCAGAUCCUACUUGAUCCCUUGGCAGCCAUACGGGAGUGAUGUUCCAUGUAUCC
# B10: Eterna 5942428 (Same State NG 3) (ssRNA)
# RNA: GUGGUCAGACAUGAGGAUCACCCAUGUGGAAUAAAUAACACACAGGAUAUCAAAUAUAAAAUAUAUGAGAAGGGUGGAUUGGUG
# B11: Eterna 6147986 (Exclusion NG 1) (ssRNA)
# RNA: GCAAUGUGAUAAGGAUAUCCAAUGGCAUCCCUAGGAGAAGGUAUCACAUGAGGAUCACCCAUGUGAAGGACGGGUUAUCGCAAA
# B12: Eterna 6451279 (Small Loop Same State NG 3) (ssRNA)
# RNA: ACAUGAGGAUCACCCAUGUAAAGCGAGGAUAUUUCACUGCACAUGAGGUUCGCCCAUGUUCUGCGGAAGAAGGUGCAAAUAAUU
# B13: Eterna 6453430 (Inverted Small Loop Exclusion NG 3) (ssRNA)
# RNA: AGGUAAGACUUAAUUGUGCUGGUGAGAAGGCAAAUGGUUGUGAUUAACAUGAGGAUCACCCAUGUUGAGGAUAUCAUCGGUAUC
# B14: Eterna 7683541 (Same State - FMN B) (ssRNA)
# RNA: UAUUAAUUGUCAGGAUAUCGUAAACGAGUGAUGUUCGUAUAUCGACGAUAGUCGAUUCUAUCUAAACGAGAAGGGACAUUAUUUA
# B15: Eterna 7682723 (Same State - Arginine A) (ssRNA)
# RNA: AAAUUCUUUUUUUUAUUUAACUUUUCAGAAGGAGCGUGGUAGUUCACAGGUAGGUCGCUGAAUUUUGGACUAGUGAUGUUAGUUA
# B16: Eterna 7730854 (Same State - Tryptophan A) (ssRNA)
# RNA: UACAUGAGGAUCACCCAUGUCCCAUGUGAACGAGGACCGGUACGGCCGCCACUCGACCGAGGCGGCACAUGAGGAUCACCCGCAU
# B17: Eterna 7627711 (Same State - Tryptophan B) (ssRNA)
# RNA: GGUUACUCUACGGCCGCCACUGAUUAAUUAUAAUCCUGUACAUAAACAUGAGGAUCACCCAUGUACAGGACCGGGUAGUGUAACC
# B18: Eterna 7639274 (Exclusion - Theophylline B) (ssRNA)
# RNA: UUAUUUAUAAUGGAUACCAGUGCUGUGGCCCGGCAUCCUGACAUGAGGAUCACCCAUGUGUACCCUUGGCAGCUGUUAUGGGUUU
# B19: Eterna 10216 (Sensor for hsa-mir-208a) (ssRNA)
# RNA: CUCAAAACAAGUUGCAGUGUUCGUCUUUAACAUGAGGAUCACCCAUGUAAUAACCCAGUGGAAGCGCUCGGGCCACC
# B20: Eterna 13246 (Sensor for hsa-mir-208a) (ssRNA)
# RNA: UGGAUCUAGGCUUGCCUGGGUCCAUGUUGACAUGAGGAUCACCCAUGUGUAUUUUAUAAGCUUUUUGUUUGUCAACA
# B21: Eterna 11880 (Sensor v3, turn-off variant 2) (ssRNA)
# RNA: AGAAAUGCCCAUGGCCGCAAGCUUUUCGCUUGUCUUACCACAUGAGGAUCACCCAUGUGACAUGGGCUCCUUAUAAU
# Target: T1, MS2 coat protein, dlFG mutant (Escherichia phage MS2, UniProt P03612, del68-81insG)
# Assay: 4 mM Mg2+; FMN 200 uM; RNA-MaP array; 100 mM Tris-HCl pH 7.5, 80 mM KCl, 4 mM MgCl2, 0.1 mg/mL BSA, 1 mM DTT, 0.01 mg/mL yeast tRNA, 0.01% Tween-20; protein 1.5 nM to 3 uM; 37 C (Table S3)
# Details: chain copies: 2; label: tethered by stalled RNA polymerase
row,Binder,Kd [nM]
1,B1,65.6
2,B2,34.1

# Target: T1, MS2 coat protein, dlFG mutant
# Assay: 4 mM Mg2+; no ligand; RNA-MaP array; 100 mM Tris-HCl pH 7.5, 80 mM KCl, 4 mM MgCl2, 0.1 mg/mL BSA, 1 mM DTT, 0.01 mg/mL yeast tRNA, 0.01% Tween-20; protein 1.5 nM to 3 uM; 37 C (Table S3)
# Details: chain copies: 2; label: tethered by stalled RNA polymerase
row,Binder,Kd [nM]
1,B3,226
2,B4,253
3,B5,103
4,B6,204
5,B7,816
6,B8,> 3000
7,B9,> 3000
8,B10,387
9,B11,54.1
10,B12,82.6
11,B13,500
12,B14,> 3000
13,B15,> 3000

# Target: T1, MS2 coat protein, dlFG mutant
# Assay: 4 mM Mg2+; L-tryptophan 2.4 mM; RNA-MaP array; 100 mM Tris-HCl pH 7.5, 80 mM KCl, 4 mM MgCl2, 0.1 mg/mL BSA, 1 mM DTT, 0.01 mg/mL yeast tRNA, 0.01% Tween-20; protein 1.5 nM to 3 uM; 37 C (Table S3)
# Details: chain copies: 2; label: tethered by stalled RNA polymerase
row,Binder,Kd [nM]
1,B16,1580
2,B17,29.1

# Target: T1, MS2 coat protein, dlFG mutant
# Assay: 4 mM Mg2+; theophylline 2 mM; RNA-MaP array; 100 mM Tris-HCl pH 7.5, 80 mM KCl, 4 mM MgCl2, 0.1 mg/mL BSA, 1 mM DTT, 0.01 mg/mL yeast tRNA, 0.01% Tween-20; protein 1.5 nM to 3 uM; 37 C (Table S3)
# Details: chain copies: 2; label: tethered by stalled RNA polymerase
row,Binder,Kd [nM]
1,B18,24.2

# Target: T1, MS2 coat protein, dlFG mutant
# Assay: 4 mM Mg2+; miR-208a RNA 100 nM (AU…UUGU); RNA-MaP array; 100 mM Tris-HCl pH 7.5, 80 mM KCl, 4 mM MgCl2, 0.1 mg/mL BSA, 1 mM DTT, 0.01 mg/mL yeast tRNA, 0.01% Tween-20; protein 1.5 nM to 3 uM; 37 C (Table S3)
# Details: chain copies: 2; label: tethered by stalled RNA polymerase
row,Binder,Kd [nM]
1,B19,21.1
2,B20,13.4
3,B21,10.7
